From patent publication US20110217282 come the findings set out here.

The target in series [1] is T1, C-terminal histidine-tagged YgiT.
T1 chain: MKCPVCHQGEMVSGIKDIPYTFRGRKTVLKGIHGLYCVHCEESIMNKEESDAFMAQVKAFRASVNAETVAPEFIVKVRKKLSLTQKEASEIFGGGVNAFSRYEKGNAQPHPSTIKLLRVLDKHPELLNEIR

A further series has as its target T2, MazE, P0AE72.
T2 chain: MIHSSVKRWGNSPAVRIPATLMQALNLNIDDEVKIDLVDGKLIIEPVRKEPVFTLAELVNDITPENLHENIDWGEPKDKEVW

B1: MazF (protein)
chain: MVSRYVPDMGDLIWVDFDPTKGSEQAGHRPAVVLSPFMYNNKTGMCLCVPCTTQSKGYPFEVVLSGQERDGVALADQVKSIAWRARGATKKGTVAPEELQLIKAKINVLIG
Take B1: the “cleavage of MS2 RNA (agarose gel)” value was “when MazF was incubated with purified YgiT-H, its activity was not inhibited” in series [1] and “its activity was completely inhibited when it was preincubated with purified MazE, the antidote of MazF” with MazE, P0AE72.
